Target: PS2 S-layer protein of Corynebacterium glutamicum 541 (ATCC-13058) (Corynebacterium glutamicum 541 (ATCC-13058))
Assay: cryo-EM structure; single particle cryo-EM of S-layer sheets purified from cells with SDS; 50 mM HEPES/NaOH pH 7.5, 150 mM NaCl, 1 mM MgCl2, 2 mM CaCl2; C6 symmetry; 3.1 Å; lattices still intact after 10 mM EDTA or 10 mM EGTA for 2 h

PS2 S-layer protein of Corynebacterium glutamicum 541 (ATCC-13058) (natural protein)
stoichiometry N: 6
